Test results from IntAct's records for PubMed 19008854.

B1: Antiviral innate immune response effector IFIT1 (Homo sapiens), P09914 (parent)
chain: MSTNGDDHQVKDSLEQLRCHFTWELSIDDDEMPDLENRVLDQIEFLDTKYSVGIHNLLAYVKHLKGQNEEALKSLKEAENLMQEEHDNQANVRSLVTWGNFAWMYYHMGRLAEAQTYLDKVENICKKLSNPFRYRMECPEIDCEEGWALLKCGGKNYERAKACFEKVLEVDPENPESSAGYAISAYRLDGFKLATKNHKPFSLLPLRQAVRLNPDNGYIKVLLALKLQDEGQEAEGEKYIEEALANMSSQTYVFRYAAKFYRRKGSVDKALELLKKALQETPTSVLLHHQIGLCYKAQMIQIKEATKGQPRGQNREKLDKMIRSAIFHFESAVEKKPTFEVAHLDLARMYIEAGNHRKAEENFQKLLCMKPVVEETMQDIHFHYGRFQEFQKKSDVNAIIHYLKAIKIEQASLTRDKSINSLKKLVLRKLRRKALDLESLSLLGFVYKLEGNMNEALEYYERALRLAADFENSVRQGP
partner: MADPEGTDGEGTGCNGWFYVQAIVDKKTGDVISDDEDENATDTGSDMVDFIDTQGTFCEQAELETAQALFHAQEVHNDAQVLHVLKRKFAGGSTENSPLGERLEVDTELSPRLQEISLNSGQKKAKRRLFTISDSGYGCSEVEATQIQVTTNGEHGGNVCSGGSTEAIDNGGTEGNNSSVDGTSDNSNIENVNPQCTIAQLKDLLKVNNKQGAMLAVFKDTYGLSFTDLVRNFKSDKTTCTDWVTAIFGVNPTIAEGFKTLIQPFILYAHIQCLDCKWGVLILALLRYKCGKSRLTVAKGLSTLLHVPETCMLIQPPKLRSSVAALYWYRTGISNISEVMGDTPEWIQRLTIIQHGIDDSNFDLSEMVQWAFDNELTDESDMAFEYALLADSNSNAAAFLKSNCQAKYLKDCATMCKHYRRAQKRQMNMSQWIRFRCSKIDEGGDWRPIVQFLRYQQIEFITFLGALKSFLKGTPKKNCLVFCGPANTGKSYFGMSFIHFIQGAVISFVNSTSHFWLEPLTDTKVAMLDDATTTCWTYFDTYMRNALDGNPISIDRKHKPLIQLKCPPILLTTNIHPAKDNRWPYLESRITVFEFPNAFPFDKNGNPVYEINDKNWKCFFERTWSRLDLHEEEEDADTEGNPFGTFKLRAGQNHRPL

Variants of: B1
Settings: with ve1_hpv18 E1, P06789

| Variant | effect of a mutation on the interaction |
| --- | --- |
| MSTNGDDHQVKDSLEQLRCHFTWELSIDDDEMPDLENRVLDQIEFLDTKYSVGIHNLLAYVKHLKGQNEEALKSLKEAENLMQEEHDNQANVRSLVTWGNFAWMYYHMGRLAEAQTYLDKEENICKKLSNPFRYRMECPEIDCEEGWALLKCGGKNYERAKACFEKVLEVDPENPESSAGYAISAYRLDGFKLATKNHKPFSLLPLRQAVRLNPDNGYIKVLLALKLQDEGQEAEGEKYIEEALANMSSQTYVFRYAAKFYRRKGSVDKALELLKKALQETPTSVLLHHQIGLCYKAQMIQIKEATKGQPRGQNREKLDKMIRSAIFHFESAVEKKPTFEVAHLDLARMYIEAGNHRKAEENFQKLLCMKPVVEETMQDIHFHYGRFQEFQKKSDVNAIIHYLKAIKIEQASLTRDKSINSLKKLVLRKLRRKALDLESLSLLGFVYKLEGNMNEALEYYERALRLAADFENSVRQGP [V121E] | disrupting interaction |
| MSTNGDDHQVKDSLEQLRCHFTWELSIDDDEMPDLENRVLDQIEFLDTKYSVGIHNLLAYVKHLKGQNEEALKSLKEAENLMQEEHDNQANVRSLVTWGNFAWMYYHMGRLAEAQTYRDKVENICKKLSNPFRYRMECPEIDCEEGWALLKCGGKNYERAKACFEKVLEVDPENPESSAGYAISAYRLDGFKLATKNHKPFSLLPLRQAVRLNPDNGYIKVLLALKLQDEGQEAEGEKYIEEALANMSSQTYVFRYAAKFYRRKGSVDKALELLKKALQETPTSVLLHHQIGLCYKAQMIQIKEATKGQPRGQNREKLDKMIRSAIFHFESAVEKKPTFEVAHLDLARMYIEAGNHRKAEENFQKLLCMKPVVEETMQDIHFHYGRFQEFQKKSDVNAIIHYLKAIKIEQASLTRDKSINSLKKLVLRKLRRKALDLESLSLLGFVYKLEGNMNEALEYYERALRLAADFENSVRQGP [L118R] | disrupting interaction |
| MSTNGDDHQVKDSLEQLRCHFTWELSIDDDEMPDLENRVLDQIEFLDTKYSVGIHNLLAYVKHLKGQNEEALKSLKEAENLMQEEHDNQANVRSLVTWGNFAWMYYHMGRLAETQTYLDKVENICKKLSNPFRYRMECPEIDCEEGWALLKCGGKNYERAKACFEKVLEVDPENPESSAGYAISAYRLDGFKLATKNHKPFSLLPLRQAVRLNPDNGYIKVLLALKLQDEGQEAEGEKYIEEALANMSSQTYVFRYAAKFYRRKGSVDKALELLKKALQETPTSVLLHHQIGLCYKAQMIQIKEATKGQPRGQNREKLDKMIRSAIFHFESAVEKKPTFEVAHLDLARMYIEAGNHRKAEENFQKLLCMKPVVEETMQDIHFHYGRFQEFQKKSDVNAIIHYLKAIKIEQASLTRDKSINSLKKLVLRKLRRKALDLESLSLLGFVYKLEGNMNEALEYYERALRLAADFENSVRQGP [A114T] | disrupting interaction |
